For the assay, the target named is CagV (Helicobacter pylori (endogenous in strain 26695)). Nature of the assay: cross-linking; 5 mM DSP added to wild‐type H. pylori extract (0.1% DDM, 0.2% sarcosine) on ice for 25 min; SDS/PAGE and western blot with anti‐CagV antibody (mice); ΔcagV extract as control.

CagV (natural protein) came in with a stoichiometry N of 2.

(Values after article PMC5494299.)
